Source: a protein production outcome set (Wang et al. 2014)

Assay: label from the status in PepcDB records
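Also: failed if final PepcDB status was selected cloned or expressed and not failed if soluble or beyond.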

Row | Sequence | protein production
1 | MVKALFSLLFVAFIWGSTFPIQKIVLVGVSPTFYIAVRFFIAALVSYFLFGKGNVKYGSILGTLLGIAYTTQTWGLTITTSTKSGFITSMYIVFVPVFAYLLEREIPTIFQIVSFFAASLGLYMISGGIKDFNFGDFLTLICAVSFALHVVLITMFSKRVKEVDLLFPQFLVVGILNLILNFFWKNWNFTLPALGSAVFTALAATILAIYLQAKYQKALGNNVSAIVFLGEPVFAAVVSYFMLGETMAGKQLLGAALLLISMLFSSLERVKIVRDANQKGRDECEDSL | failed
2 | MVKCLSAHNKAPHVSVITPSYNSRRFIGETILSVQNQSYENWEMIIVDDCSTDQSAAKIKEIIEGDSRIRLLSLKENVGAAKARNLAIREARGRYIAFLDSDDIWLPHKLKTQLLFMEEMNIAFSYASYSLIDENGNELNREVSVPKSVDYHYLVGNTIIGCLTVMIDREKIPYVEMPSVQPEDTALWLNLLHEGHEAKGIQQVLAKYRIVANSVSSNKVRAAFRYWKLLRDQKSLNAVQSFYYFSKYAYHAYKKNKINVVGKTQLLEHHHHHH | failed
3 | MVKCMKPGKAVILLQGRYTGKKAVIVKSFDDGTVEKKYGHCLVAGLKKYPSKVIRKDSAKKTAKKSRVKCFFKVINYQHVMPTRYTLDLDLKNVVSADAISSKDKKVTALKEAKAKFEERFKTGKNRWFFTKLRF | failed
4 | MVKIGVCGPVGSGKTALIEALTRHMSKDYDMAVITNDIYTKEDAEFMCKNSVMPRERIIGVETGGCPHTAIREDASMNLEAVEEMHGRFPNLELLLIESGGDNLSATFNPELADFTIFVIDVAEGDKIPRKGGPGITRSDLLVINKIDLAPYVGADLKVMERDSKKMRGEKPFIFTNIRAKEGLDDVIAWIKRNALLED | failed
5 | MVKLDRYIGSSVFMAILAVLGIILGLASLFAFIDEMGAVNETYTVVDVMSYVALTAPRRVYEMLPMAGLIGCLIGLGSLASNSELTIMRAAGVSVGRIVWAVMKPMLVLMLVGVLVGEYVAPATETQAQASRALAQGSGDAQSSKHGLWHRQGDEFIHINAVQPNGLLYGVTRYHFDDQRHMLSSSFARQARFHEDYWQLTDVTTTYFRDGHTEVISVPGERWDVALSPQLLSTVVMAPESLSISGLWGYIHYLADQGLNNGRYWLAFWVKVLQPLVTAALVLMAISFIFGPLRSVTLGQRVFTGVLVGFTFRIAQDLLGPSSLVFGFSPLFAVLVPAGICAVAGVWLLRRAG | failed
6 | MVKLNSNPSEKGTKPPSVEDGFQTVPLITPLEVNHLQLPAPEKVIVKTRTEYQPEQKNKGKFRVPKIAEFTVTILVSLALAFLACIVFLVVYKAFTYDHSCPEGFVYKHKRCIPASLDAYYSSQDPNSRSRFYTVISHYSVAKQSTARAIGPWLSAAAVIHEPKPPKTQGH | failed
7 | MVKNGIILGKRYEVISKIGAGGMADVYKGKDHMLNRYVAIKVLKKEFKEDENFVRKFRSEAQAAAGLIHPNVVNVYDVGEDRGLYYMVMELVEGITLKEYIDKKGRLSHKETISIAIQMCTGIGVAHAANIIHRDIKPQNIIISKDGKVKVTDFGIAKATTSNTISSNAMGSVHYTSPEQARGGFSDQKSDIYSIGITLYEMVTGQVPFDGDSTVSVAIKHLQEEITPPSEIVPDIPYSLEQIILKCTQKNGERRYRNTGELIQDLKRSLVDPDGDFVVIPPLGNADTVIITDEELDDIRSSYDDEEEFDEYDEDEYGDEEEFDEYDEDDDEYDEYDDDEEYGGKGKKGKSSDDVNPRMKKVMKILTIVVAIIIVFILVFAIGKAAGIFKGGFGIDTVDTDEKTKVKVPNVVGMTEDEAKKTLNKKGLGFKVVAREESKKYEEGTVSKQKTEAGKRVAKNTTIQVVVSSGLVGDEITVPNVSNMSESEAQKALEDAGFEKITSDFAYSDSVAEGDVIGTTPAANARATKDTEIVMKVSKGSEKKTVPNVVGQQDGDAQNAITAAGLTVGTVTYEYYDDVPKGQVVSQTVAGGKKVAPGTSVGLTISSGPKPPEKVSVPPVTGISIEEARALLDGVGLKADIKYDSETVGTVGQVIKCNPGVGTQVDEGSTVTLIVISKSSQPDGGETESTQ | failed
8 | MVKSKVKKVEKGKEGEEKRSTYVLLKKVLIPILVFGFAIYAFYLRHLTAGKYFPDPDTFYHFEIYKLVLKEGLPRYYPMSDAPFGSLIGEPLGLYLLPAAFYKVVSLFGYNELQAFLLWPPFVGFLGVIAVYLLGRKVLNEWTGLWGAVVLTVSTANFSRTFSGNARGDGPFMALFIFASVAMLYYLKESNKTRKIIYGTLFVLLTVISLGAWNGSPFGLMVLLGFASLQTIILFIFGKLEELKKFVKEFYPAYLAILAFGYALTFPGIVKIGGFIRFAFEVFLGLIFLLVIMLYGGRYLNYSDKKHRFLVVTIIVLLGFGGAYAYVGPKLFRLMGGAYQSTQVYETVQELAKTTIGDVKAYYGVESGNGLIFFLSIPGLLILLTKYLYDLFKKAKSDNETLFALVFYTMSLYLLYLAVRFLFLASYAVALFFGIFIGFSMDVIEKMKENIGIKAALGIVLSLMILVIPFVHAPVLARSARALKNTEIEVTGWEQALKWLRSNTSKYATATSWWDYGYWIESSLLGNRRASADGGHARDRDHILALFLARDGNISEVDFESWELNYFIIYLNDWAKFNAISYLGGAITRKEYNGDENGRGRVTTILLTQAAGNVYVNPYARIVIKVIQQNKTRRIAVNIGQLECSPILSVAFPGNIKIKGSGRCSDGSPFPYVVYLTPSLGVLAYYKVATSNFVKLAFGIPTSSYSEFAEKLFSNFIPVYQYGSVIVYEFRPFAIYKIEDFINGTWREVGKLSPGKHTLRLYISAFGRDIKNATLYVYALNGTKIIKRIKVGEIKYMNHLEEYPIIVNVTLPTAQKYRFILAQKGPVGVLTGPVRVNGKITNPAYIMREGESGRLELKVGVDKEYTADLYLRATFIYLVRKGGKSNEDYDASFEPHMDTFFITKLKEGIKLRPGENEIVVNAEMPKNAISSYKEKLEKEHGDKLIIRGIRVEPVFIVEKEYTMIEVSASAPHHSSE | failed
9 | MVKTMSEVNFNSKAFTYADNALVQKSASEVLLNLLSIQPEEDVLDIGCGPGHITKKIAKITNGSVQGIDVSQGMIEQAISSNKDLPNLKYSVMDAENLELNTKFDVIVCNSCFQWFQKPDQVLMRCFNVLKEGGRIGIQAPATQSYCPNFISAIEKIRMHPYTREVFNHFKSPWFFFDSKDEYEQLFRNHGFDIIYSELREESNLFSVEQAYKIYQSGAENGYLNQSYYTVTLTDNYISTFRELVKEALQEQADNSGMINLKFERIYLVAKKQ | failed
10 | MVKVPVLRIGKVAAPTGADHALAGSAFPAKNAIADVNPPASPWIDKSVAAQRTEKAGLAAPRSEVTLDFVPPVTRRTPRITFPRRGRSDWTHSLTNSLRMSDTALVAAAVFAGFALNTNGLSLAAESPAFTHHLMTGLILGLVWLGALEVYRTRDPKVLGVGPEEYKRVLSASFRVFGFLGIVAVVFRLDAVSSFVLVSLPLGLVALTGSRWSFRRWLSHEKSRGRCLSRAIVVGEPQDVRYVIKQINRKSGAAYDILGACLPGARRGAVLKVDHLRVPVLSSIYGIAHTVRQTGANAVIVAGPVPGGNQFIQELGWQLEENAAELVLAATLTNVAGPRIHWRPVEGLPLMHVDIPHYSGGKHTLKRLMDITVSASALLILSPILLLLAAIVHHDSPGPVLFRQERVGRRGTTFHMLKFRSMVVDAESRLEELNTRDEGAGVLFKIRGDPRITRCGRWMRKYSLDELPQFWNVLVGNMSLVGPRPPLAREVSGYERHTHRRLLIKPGITGLWQINGRSDLPWDEAVRLDLYYVENWSIAGDLIIMWRTFRAMIQPSGAY | failed
11 | MVKYEELLKTLENGINSEEGEIRLVRKSQGRFKEEFNFDLSLGSKPLLTLKVFLGRKPYWQPWVEVFGVNPNLRNVFFGSEAERKLYEFLSEHFGRIFVEYFEDKETTYELQKGVPPALSRLGFELLKLGYTYFRDWYIPEGLMEGGHKIQAEKPKTEEAKKRHLENLKKEFEEFIGKCEDEGLIKKVKERYNFLEHEGSS | not failed
12 | MVLETPVCSPIDKESSSDDVQLNKPPKKKRKLDVVYPPRDNTSSSSDVKPKVPGYCGVKAIGCNRSDELLAEVALHSYNSQTGTNLELMTVTQVMLQSVAHINYHMILDAFDPANNSLSSIEICLWDAAVKNNEKLRLVTTFCSLEGSGDKGSQWDPNGVDVLYTGVMPKWLDDGALSGSEKLHYYEVNDSDLQENKWLHLYAQVGAYSKWDLGMVKHFPLEIKKVVVQTMEDDIESNLKLKSSNAIFYITFTTSGGVECACIIRQTRNGRPQHMCLEINNVEMDK | failed
13 | MVLMRYVGKRDLFTVGKYLGTIMQGVGFVVALPVFVAIIYGEGNLQSFIIPAFISLGAGTVLKRYLPEECSVRLKHGMMVACLAWLWAGLIGSLIMISALNIDFTNAFFENMSAWTGSGLTIFSSVESLPKSILFLRSLEQWIGGLGVVIVVIGILIRPGTAASRLYKSEARDERIKPSIANTVKTIWWIYITYTVLGIVLYGLTGMPLFDAINNTLTNLSTGGMSIKNMNIGYYHSAAVYLVTMLLMILGGTSFLVHYQLIKGRFFSVLHDIQLQATVVFISIFTILAVYVGGVAPLESIYHVISALSCTGSSISSTPQMVAWPAYFKVLLITCMLIGMAAGSTTGAVKIIRVITVLKGVYWEIMRILAPEGSVMPRKISGKSVSDTEIREAGSYISLYFVLLFFTWSVLVVYGYDPLNSLFEAASAQGNVGLSMGITSFNLPVVPKMALILSMWLGRLEIIPVIVLIRGLVEAFKAG | failed
14 | MVMAPLPPVESLSLRQAIAQMIVVRGAGYLFDYERPYPQWEADQTTLQRWIEAGIGGVILLGGSAAEVAQKTKQLQSWAEIPLLIAADIEEGVGQRFRGATEFPPPMAFGEIWRTDPHQAIALAETMGATTAQEALSLGINWVLAPVLDVNNNPHNPVINIRAFGETPDQVSALGTAFIRGAQQYAVLTTAKHFPGHGDTATDSHLALPTISHDDTRLNTVELPPFKAAIQGGVDAVMNAHLMIPAWDQQYPATLSPAILTGQLRHKLGFKGLIVTDALVMGGITQFAAPDTVVVQAIAAGADILLMPPDVDGAIIAIETAIKTGQLSESRIYESVERIWQAKQKILTATPSTFPQGISGDRPETRKTVAMVLERATKHQKSLVKISSFPDNFARNLIVVDSVLKSPFLRPNCPAIAIPQRHGYAAEIVELKTLPRLQLEAIPTLIQCFLRGNPFTEKLADPIDVLQKIAAQIPLQGVIFYGSPYFLEALQTTLPEIPWWFSYGQMAIAQAEICTSLWEEAPQAAPSAAEFI | not failed
15 | MVMEKALTLQQMPDFIVSTIPKGQASYLVFGERSIGKKDVIDIVIKQLEKIGFRTGVEQVPSVGETYKNQTLNSIMDKITGKTEVRDKNTIIKEYDEFTRNNKEKIVIAVYGVEKLSMESKNLFLYMCRISRNRNVTLIGTYNADSTDEYDRFINLIASEDYINIIKIEKPTIEDIAFLVKKMGYKLPDDFVKEIARLTNYNIDSMKYALRYYQDLGVINDRKEINTVSFRYIPVPPTTELYYEKMINSLTDLEKNVAYLMVMLSNDIDVDSAAIILNRKRTEVLNIIRKLEDKGLVKFNGQVVGFYSDKIRRSVEKSMKTSDIAYMTSLIESSQLFMRMPPAQRMHILMKANKLDEIRDIIKEKGQSLVDGYNSVDEVIEDLEQLGNVFSEDSDVKKVLCHAYYLKGRFDKAISCYMDIKPDHDLDSMIDLSSIYSNMGKFEEAEKILEDAKNNFTDDYPQTIISYRIAALYYRMGRYKDTIDMLTPLLGKIDAENMSGVKAGILNILGNIDMTSYRYGDALKKYNEALEINRKLSNYAEISRNLNNIALIDVYTGKYDLAISILKELIETTYSTGDLVSRIYAIYNLSEIYYVIGKQEYAEGYIPLMMRILDVVSEKRVSFHIYRFLTMYYVGLLDFKMAKKYAELAIENAIMEDQKIMAIIFHKIINYVLTGEDPNIDTQEIDSTNFTDDYTSTFLIALAYYYRIIENQEMAKHYVDMAEEAAYKMKIPYVIVNASFHKAVILLSIGDLDGFRRHFERMQKPPTTIQFYDDSFEIFRSIYDGNFDAIKSSKYRIIEEDHVNGTLKGLMPVILNAFALYKFSGIPDDLHHLINVTPEPYSRLLALITNYH | failed
